Data taken from patent publication US7521540B2, “CYR61 compositions and methods” (Munin Corporation, priority 1996, dated 2009).

Tested on: Limb mesenchymal cells
Experiment: Chondrogenesis, [35S]-sulfate incorporation in micromass cultures
Assay type: cell-based, mouse
Protocol: Cell proliferation was assessed by the thymidine assay, described above, and by microscopic cell counts. Chondrogenesis was assessed by quantifying the incorporation of [^35S]-sulfate (ICN Biomedicals, Inc.) into sulfated glycosaminoglycans, and by qualitatively determnining the extent of chondrogenesis by cell staining with Alcian Blue. Cultures, described above, were labeled with 2.5 μCi/ml [^35S]-sulfate for 18 hours, washed twice in PBS, fixed with Kahle's fixative (Pepper et al., J. Cell Sci. 109:73-83 [1995]) and stained for 18 hours in 0.5% Alcian Blue, pH 1.0. The extent of chondrogenesis is correlated with the intensity of Alcian Blue staining. San Antonio et at., Dev. Biol. 115:313-324 (1986).
Chondrogenic differentiation was quantitated by incorporation of […] (ICN) into sulfated glycosaminoglycans and assessed qualitatively by Alcian Blue staining. Cultures were radiolabeled with 2.5 μCi/ml [^35S]-sulfate for 18 hr, fixed with Kahle's fixative and stained with 0.5% Alcian Blue, pH 1.0 (Lev et al., 1964). The extent of chondrogenesis is correlated with the intensity of Alcian Blue staining (San Antonio et al., 1986). [^35S]-Sulfate incorporation in the fixed cell layer was quanititated by liquid scintillation counting.
As shown above in Example 11, anti-Cyr61 antibodies can neutlralize both the cell adhesion and DNA-synthesis enhancement activities of Cyr61. Anti-Cyr61 antibodies were added to the mesenchymal cell culture media or mixed the cell suspension prior to plating. […] These observations were correlated with decreased Alcian Blue staining.

B1: Cyr61: Cysteine-rich ECM signaling protein; murine sequence SEQ ID NO:2, recombinant from Baculovirus-infected Sf9 cells (protein, listed as Mus musculus)
chain: MSSSTFRTLAVAVTLLHLTRLALSTCPAACHCPLEAPKCAPGVGLVRDGCGCCKVCAKQLNEDCSKTQPCDHTKGLECNFGASSTALKGICRAQSEGRPCEYNSRIYQNGESFQPNCKHQCTCIDGAVGCIPLCPQELSLPNLGCPNPRLVKVSGQCCEEWVCDEDSIKDSLDDQDDLLGLDASEVELTRNNELIAIGKGSSLKRLPVFGTEPRVLFNPLHAHGQKCIVQTTSWSQCSKSCGTGISTRVTNDNPECRLVKETRICEVRPCGQPVYSSLKKGKKCSKTKKSPEPVRFTYAGCSSVKKYRPKYCGSCVDGRCCTPLQTRTVKMRFRCEDGEMFSKNVMMIQSCKCNYNCPHPNEASFRLYSLFNDIHKFRD
increase in [35S]-sulfate incorporation (0.3 μg/ml): 1.5 fold
increase in [35S]-sulfate incorporation (5 μg/ml (120 nM)): 3.5 fold
cartilage formation (10 μg/ml): formed a more massive mound of cartilage
increase in normalized sulfate incorporation over control (sulfate/cell number ratio): approximately 2 fold
